Key:
[1] = target: His-tagged PvBDP1 ankyrin domain (fragment 1-220) (P. vivax); assay: thermal shift assay
[2] = target: Strep-tagged ACDC domain of PvAP2-I (residues 30-180) (P. vivax); assay: thermal shift assay

synthetic peptide corresponding to the α3 helix of ASAIR of PvAP2-I (residues 280-310)
Tm of the ankyrin domain with peptide at a 1:10 molar ratio (50.0°C alone) [1]: 50.7 °C
Tm of the ankyrin domain with peptide at a 1:40 molar ratio (50.0°C alone) [1]: 51.2 °C

synthetic peptide corresponding to PvBDP1 BAAS (residues 275-296)
Tm of the ACDC domain with peptide at a 1:10 molar ratio (61.1°C alone) [2]: 60.1 °C
Tm of the ACDC domain with peptide at a 1:40 molar ratio (61.1°C alone) [2]: 59.8 °C

— paper doi:10.1101/2025.11.26.690747
